Data from publication PMC9557730 (2022).

B1: N-terminal 3×-FLAG-tagged p52 (WT) [human] / p34 [human (endogenous in HEK293T)] (parent complex)
chain 1: MESTPSRGLNRVHLQCRNLQEFLGGLSPGVLDRLYGHPATCLAVFRELPSLAKNWVMRMLFLEQPLPQAAVALWVKKEFSKAQEESTGLLSGLRIWHTQLLPGGLQGLILNPIFRQNLRIALLGGGKAWSDDTSQLGPDKHARDVPSLDKYAEERWEVVLHFMVGSPSAAVSQDLAQLLSQAGLMKSTEPGEPPCITSAGFQFLLLDTPAQLWYFMLQYLQTAQSRGMDLVEILSFLFQLSFSTLGKDYSVEGMSDSLLNFLQHLREFGLVFQRKRKSRRYYPTRLAINLSSGVSGAGGTVHQPGFIVVETNYRLYAYTESELQIALIALFSEMLYRFPNMVVAQVTRESVQQAIASGITAQQIIHFLRTRAHPVMLKQTPVLPPTITDQIRLWELERDRLRFTEGVLYNQFLSQVDFELLLAHARELGVLVFENSAKRLMVVTPAGHSDVKRFWKRQKHSS
chain 2: MVSDEDELNLLVIVVDANPIWWGKQALKESQFTLSKCIDAVMVLGNSHLFMNRSNKLAVIASHIQESRFLYPGKNGRLGDFFGDPGNPPEFNPSGSKDGKYELLTSANEVIVEEIKDLMTKSDIKGQHTETLLAGSLAKALCYIHRMNKEVKDNQEMKSRILVIKAAEDSALQYMNFMNVIFAAQKQNILIDACVLDSDSGLLQQACDITGGLYLKVPQMPSLLQYLLWVFLPDQDQRSQLILPPPVHVDYRAACFCHRNLIEIGYVCSVCLSIFCNFSPICTTCETAFKISLPPVLKAKKKKLKVSA
B2: N-terminal 3×-FLAG-tagged p52 (WT) [human] / XPB [human (endogenous in HEK293T)] (parent complex)
chain 1: B1 chain 1
chain 2: MGKRDRADRDKKKSRKRHYEDEEDDEEDAPGNDPQEAVPSAAGKQVDESGTKVDEYGAKDYRLQMPLKDDHTSRPLWVAPDGHIFLEAFSPVYKYAQDFLVAIAEPVCRPTHVHEYKLTAYSLYAAVSVGLQTSDITEYLRKLSKTGVPDGIMQFIKLCTVSYGKVKLVLKHNRYFVESCHPDVIQHLLQDPVIRECRLRNSEGEATELITETFTSKSAISKTAESSGGPSTSRVTDPQGKSDIPMDLFDFYEQMDKDEEEEEETQTVSFEVKQEMIEELQKRCIHLEYPLLAEYDFRNDSVNPDINIDLKPTAVLRPYQEKSLRKMFGNGRARSGVIVLPCGAGKSLVGVTAACTVRKRCLVLGNSAVSVEQWKAQFKMWSTIDDSQICRFTSDAKDKPIGCSVAISTYSMLGHTTKRSWEAERVMEWLKTQEWGLMILDEVHTIPAKMFRRVLTIVQAHCKLGLTATLVREDDKIVDLNFLIGPKLYEANWMELQNNGYIAKVQCAEVWCPMSPEFYREYVAIKTKKRILLYTMNPNKFRACQFLIKFHERRNDKIIVFADNVFALKEYAIRLNKPYIYGPTSQGERMQILQNFKHNPKINTIFISKVGDTSFDLPEANVLIQISSHGGSRRQEAQRLGRVLRAKKGMVAEEYNAFFYSLVSQDTQEMAYSTKRQRFLVDQGYSFKVITKLAGMEEEDLAFSTKEEQQQLLQKVLAATDLDAEEEVVAGEFGSRSSQASRRFGTMSSMSGADDTVYMEYHSSRSKAPSKHVHPLFKRFRK
B3: C-terminal 3× FLAG-tagged WT Tfb2 [Saccharomyces cerevisiae] / Ssl2 [S. cerevisiae (endogenous in yeast)] (parent complex)
chain 1: MSDYSLKHSVTQYLEEIPQQVQNRLYTSPATCLAIYRILPPLAKFFIMAMVFNENEVPLLDLDKWVNSNGKLQFQNAIKSMKSLHLLIPNKSSGTLMINLNPTFKISLRNALTGGEVQNSFGVVVEENVVSLDLLDEYSANKWETILHFMVGTPLAKIPSEKVLNLLKHSKLMEEVNSTGEFKITNEGFQFLLQEINSQLWTLLLQYLKMIETSKMDLVDVLHFIFMLGALEVGKAYKIDALSETQRIMLQDMRDYGLVFQKHSNDSIFYPTKLALMLTSDTKTIRSASNAMDSVLRQNREEPSVNEDGANGKSTTDITTSDDLNKAGLKNQDIPDGSLIVETNFKIYSYSNSPLQIAVLSLFVHLKARFVNMVLGQITRESIRRALTNGITADQIIAYLETHAHPQMRRLAEEKLEKKLELDPNCKEPLQVLPPTVVDQIRLWQLELDRVITYEGSLYSDFETSQEYNLLSKYAQDIGVLLWKDDKKKKFFISKEGNSQVLDFAKRKLKKKQ
chain 2: MTDVEGYQPKSKGKIFPDMGESFFSSDEDSPATDAEIDENYDDNRETSEGRGERDTGAMVTGLKKPRKKTKSSRHTAADSSMNQMDAKDKALLQDTNSDIPADFVPDSVSGMFRSHDFSYLRLRPDHASRPLWISPSDGRIILESFSPLAEQAQDFLVTIAEPISRPSHIHEYKITAYSLYAAVSVGLETDDIISVLDRLSKVPVAESIINFIKGATISYGKVKLVIKHNRYFVETTQADILQMLLNDSVIGPLRIDSDHQVQPPEDVLQQQLQQTAGKPATNVNPNDVEAVFSAVIGGDNEREEEDDDIDAVHSFEIANESVEVVKKRCQEIDYPVLEEYDFRNDHRNPDLDIDLKPSTQIRPYQEKSLSKMFGNGRARSGIIVLPCGAGKTLVGITAACTIKKSVIVLCTSSVSVMQWRQQFLQWCTLQPENCAVFTSDNKEMFQTESGLVVSTYSMVANTRNRSHDSQKVMDFLTGREWGFIILDEVHVVPAAMFRRVVSTIAAHAKLGLTATLVREDDKIGDLNFLIGPKLYEANWMELSQKGHIANVQCAEVWCPMTAEFYQEYLRETARKRMLLYIMNPTKFQACQFLIQYHERRGDKIIVFSDNVYALQEYALKMGKPFIYGSTPQQERMNILQNFQYNDQINTIFLSKVGDTSIDLPEATCLIQISSHYGSRRQEAQRLGRILRAKRRNDEGFNAFFYSLVSKDTQEMYYSTKRQAFLVDQGYAFKVITHLHGMENIPNLAYASPRERRELLQEVLLKNEEAAGIEVGDDADNSVGRGSNGHKRFKSKAVRGEGSLSGLAGGEDMAYMEYSTNKNKELKEHHPLIRKMYYKNLKK
B4: N-terminal 3×-FLAG-tagged p52 (WT) [human] / p8 [human (endogenous in HEK293T)] (parent complex)
chain 1: B1 chain 1
chain 2: MVNVLKGVLIECDPAMKQFLLYLDESNALGKKFIIQDIDDTHVFVIAELVNVLQERVGELMDQNAFSLTQK

Variants of: B1
Test: FLAG-IP LC–MS (iBAQ); HEK293T nuclear extracts; n = 3, biological replicates; read off a plot

response	Variant
~0.73 Normalized Log2 iBAQ	chain 1 R337A, chain 1 F338A
~0.67 Normalized Log2 iBAQ	chain 1 Y316A, chain 1 Y318A

Further lines, the variant ahead of its results:

Variant	response
chain 1 E310A, chain 1 R314A	~0.67 Normalized Log2 iBAQ
chain 1 E310F	~0.64 Normalized Log2 iBAQ

Variants of: B2
Test: FLAG-IP–Western; HEK293T nuclear extracts; n = 3, biological replicates; read off a plot

response	Variant
~0.03 Normalized Western Signal	chain 1 R337A, chain 1 F338A
~0.02 Normalized Western Signal	chain 1 Y316A, chain 1 Y318A

Continued, variant first:

Variant	response
chain 1 E310A, chain 1 R314A	~0.13 Normalized Western Signal
chain 1 E310F	~0.01 Normalized Western Signal

Variants of: B2
Test: FLAG-IP LC–MS (iBAQ); HEK293T nuclear extracts; n = 3, biological replicates; read off a plot

response	Variant
~0.67 Normalized Log2 iBAQ	chain 1 R337A, chain 1 F338A
~0.63 Normalized Log2 iBAQ	chain 1 Y316A, chain 1 Y318A

Second part, the variant before the results:

Variant	response
chain 1 E310A, chain 1 R314A	~0.78 Normalized Log2 iBAQ
chain 1 E310F	~0.57 Normalized Log2 iBAQ

Variants of: B3
Test: FLAG IP and Western blot; whole-cell extracts; FLAG-tagged Tfb2 variants coexpressed with endogenous Tfb2; two biological replicates; read off a plot

response	Variant
~0.17 Western Signal/Tfb2-FLAG	chain 1 L360A, chain 1 L362A, chain 1 F363A
~0.07 Western Signal/Tfb2-FLAG	chain 1 R369A, chain 1 F370A
~0.35 Western Signal/Tfb2-FLAG	chain 1 Q395A, chain 1 I396A, chain 1 I397A
~0.38 Western Signal/Tfb2-FLAG	chain 1 I396A, chain 1 I397A
~0.11 Western Signal/Tfb2-FLAG	chain 1 L339A, chain 1 I340A, chain 1 V341A
~0.21 Western Signal/Tfb2-FLAG	chain 1 I378A, chain 1 T379A, chain 1 R380A
~0.14 Western Signal/Tfb2-FLAG	chain 1 I347A, chain 1 Y348A, chain 1 Y350A
~0.28 Western Signal/Tfb2-FLAG	chain 1 Y399A, chain 1 L400A
~0.19 Western Signal/Tfb2-FLAG	chain 1 Y348A, chain 1 Y350A
~0.29 Western Signal/Tfb2-FLAG	chain 1 I378A, chain 1 T379A
~0.23 Western Signal/Tfb2-FLAG	chain 1 I347A, chain 1 Y348A

Further lines, the variant ahead of its results:

Variant	response
chain 1 E447K	~0.5 Western Signal/Tfb2-FLAG
chain 1 D439A, chain 1 E447A, chain 1 R450A	~0.58 Western Signal/Tfb2-FLAG
chain 1 E342F	~0.085 Western Signal/Tfb2-FLAG
chain 1 F370A	~0.085 Western Signal/Tfb2-FLAG
chain 1 E342R, chain 1 K346E	~0.11 Western Signal/Tfb2-FLAG
chain 1 G390A, chain 1 I391A, chain 1 T392A	~0.2 Western Signal/Tfb2-FLAG

Variants of: B4
Test: FLAG-IP LC–MS (iBAQ); HEK293T nuclear extracts; n = 3, biological replicates; read off a plot

response	Variant
~0.83 Normalized Log2 iBAQ	chain 1 Y316A, chain 1 Y318A
~0.84 Normalized Log2 iBAQ	chain 1 R337A, chain 1 F338A

The next lines start with the variant.

Variant	response
chain 1 E310A, chain 1 R314A	~0.83 Normalized Log2 iBAQ
chain 1 E310F	~0.86 Normalized Log2 iBAQ
